Results from the nanobody polyreactivity screen of Harvey et al. (2022).

Assay: yeast display, Sf9 membrane polyspecificity reagent, FACS + sequencing; frameworks hold sequencing errors
In short: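 A nanobody's polyreactivity label depends on the gate it was sorted from. Yeast display cells were stained with 10% biotinylated, detergent-solubilized Sf9 membrane reagent for 1 hour at 4 °C, enriched on streptavidin microbeads and sorted by FACS. The low and high (top ~1%) gates were set on anti-HA fluorescence for expression and streptavidin fluorescence for reagent binding.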

Sequence	polyreactivity (PSR sort gate)
QVQLVESGGGLVQAGGSLSLSCAASGSTFLKYTMGWYRQAPWKERELVAAISKSGGSTYYADSVKGRFTISRDNAKNTVYLQMNSLKPEDTAVYYCAKGRYWVYSYGYGYWGQGTQVTVSS	high polyreactivity
QVQLVESGGGLVQAGGSLRLSCAASGSTFGYNTMGWYREAPGKERELVAAITGTGRTNYADSVKGRFTISRDNAKNTVYLQMNSLKPEDTAVYYCNARQAGTRYKYGYYGRYYWGQGTQVTVSS	high polyreactivity
QVQLVESGGGLVQAGGSLRLSCAASGGTFYRYAMGWYRQAPGKEREFVASITQRGGRTYYADSVKGRFTISRDNAKNTVYLQMNSLKPEDTAVYYCAVEYYNYPNSRRYDYWGQGTQVTVSS	high polyreactivity
QVQLVESGGGLVQAGCSLRLSCAASGSTFRPYAMGWYRQAPGKERELVAAINNSGGSTYYADSVKGRFTISRDNAKNTVYLQMNSLKPEDTAVYYCAAEWYYYFIIMNYWGQGTQVTVSS	high polyreactivity
QVQLVESGGGLLQAGGSLRLSCAASGNTFVKYTMGWYRQAPGKERELVAAITWSGGSTSYADSVKGRFTISRDNAKNTVYLQMNSLKPEDTAVYYCAAAWSHSRWDTHDYWGQGTQVTVSS	low polyreactivity
QVQLVESGGGLVQAGGSLRLSCAASGRTKQRKAMGWYRQAPGKERELVAAISSSGGSTYYADSVKGRFTISRDNAKNTVYLQMNSLKPEDTAVYYCAADGQFDDYYSLPFYYDYWGQGTHVTVSS	high polyreactivity
QVQLVESGGGLVQAGGSLRLSCAASGFIFPRYAKGWYRQAPGKERELVAAISKSGGRTYYADSEKGGFTISRDYAKNTFYLQMNSLKPEDTAVYYCADGRISRFSRYYYWGQGTHVTVSS	high polyreactivity
QVQLVESGGGLVQAGGSLRLSCAASGSTFKYYAMGWYRQAAGKERELVATITRRSGSTYYADSVKGRFTISRDNAKNTVYLQMNSLKPEDTAVYYCNAYGPYKYNYWGQGTQVTVSS	high polyreactivity
QVQLVESGGGLVQAGGSLRLSCAASGSTFYVNTMGWYRQAPGKERELVAAINWRGGSTYYADSVKGRFTISRDNAKNTVYLQMNSLKPEDTAVYYCAAYGYYRYVTAYIYDMDYWGQGTQVTVSS	low polyreactivity
QVQLVESGGGLVQAGGSLRLSCAASGNTFTFYAMGWYRQAPGTERELVASITGRGGSTYYADSVKGRFTISRDNAKNTVYLQMNSLKPEDTAVYYCNADYNSFRYRPPTTRDYWGQGTQVTVSS	low polyreactivity
QVQLVESGGGLVQAGGCLRLSCAASGSIFWGYAMGWYRPAPGKERELVAAITDSGGRTYYADSVKGRFTISRDNAKNTVYVQMNSQKPEDTAVYYCAADYYSQYYYYAVPDRDYWGQGTQVTVSS	low polyreactivity
QVQLVESGGGLVQAGGSLRLSCAASGIISGRNTMGWFRLARGKERELVAAISGSGGSTHYADSVKGRFPSSRDNAKNTVYLQSNSLKPEDTAVYYCAADTAYVYSMDYWGQGTQVTVSS	high polyreactivity
QVQLVESGGGLVQAGGSLRLSCAASGSTFKRYAMGWYRQAPGKERELVATINSGTSTNYADSVKGRFTISRDNAKNTVYLEMNSLKPEETAVYYCAKSFRRSVGGYGYDYWGQGTQVSVSS	low polyreactivity
QVQLVESGGGLFQAGGSLRLSCAASGSTLRDYVMGWYRQAPGKERELVAAISWTGDRTYYADSVKGRFTISRDNAKNTVYLQMNSLKPEDTAVYYCNAVYHVTRQGNLDSWGQGTQVTVSS	low polyreactivity
QVQLVESGAGLVQAGASLRLSCAASGRIFSRYVMGWYRQAPGKEREFVASITWSGSSTYYADSVKGRFTLSRDNAKNTVYVQMNSLKPEDTAVYYCAALGLLSPSPWGTHIYEYDSWGQGTQVTVSS	low polyreactivity
QGQLVESGGGLVQAGGSLRLSCAASGSIFGENAMGWYRPAPGKERELVAAISSAGSTKYADSVKGRFTISRDNAKNTVYLQMNSLKPEDTAVYYCAAGYYRTSYPYSYYYWGQGTQVTVSS	low polyreactivity

Sequence	polyreactivity (PSR sort gate)
QVQLVESGGGLVQAGGSLRLSCAASGLTFYAYAMGWYRQAPGKERELVAGISRSGGRTYYADSVKGRFTISRDNAKNTVYLQMNSLKPEDTAVYYCAAGIPVTSRFYGMDWGQGTQVTVSS	high polyreactivity
QVQLVESGGGLVQAGGSLRLSCAASGFIFASYAMGWYRQAPGKERELVAAISSRGGRTYYADSVKGRFTISRDNAKNTVSLQMNSLKPEDTAVYYCAAENYWLAWYKGYDYCGQGTQVTVSS	high polyreactivity
QVQHVESGGGLVQAGGSLRLSCAASGRIFHFNAMGWYRQAPGKERELVAAISYRGGSTYYADSVKGRFTISRDNAKNTVYLQMNSLKPEDTAVYYCAAYTRHSARTYYYSYDYWGQGTQVTVSS	high polyreactivity
QVQLVESGGGLVQAGGRLRLSCAASGRIFVYYAMGWYRQAPGKERELVAAINAGGSTNYADSVKGRFTISRDNAKNTVYLQMNSLKPEDTAVYYCATDRYWWSGFDYWGQGTQVTVSS	high polyreactivity
QVQLVESGGGLLQAGGSLRLSCAASGRTLGIYAMGWYRQAPWKERELVAAITLSGSDTYYADSVKGRFTISRDNAKNTVYLQMNSLKPEDTAVYDCAAKTYGGYGKYGYWGQGTQVTVSS	low polyreactivity
QVQHVESGGGLVQAGGRLRLSCAASGRTFPRYAIGLYRQAPGKERELVAAISVLAGITYYADSVKGRFTISRDNAKNTVYLQMNSLKPEDTAVYYCAKDHWTTSYDEGDYWGQGPQVTVSS	low polyreactivity
QVQLVESGGGLVQAGGSLRLSCAASGFIFNWNTMGWYRQAPGKERELVATMTGSGGSTYADSVKGRFTISRDNAKNTVYLQMNSLKPEDTAVYYCAATRRSFHKYDYWGQGTQVTVSS	low polyreactivity
QVQLVQSGGGLVQAGGRLRLSSAASGRTFEPNAMGWYRQAPGKERELVAAITNGGSTSYADSVKGRFTISRDNAKNSVYLQMNSLKPEDTAVYDFAGDLGRNLLHTYYYWGQGTQVTVSS	low polyreactivity
QVQLVESGGGLVQAGGSLRLSCAASGSTFYPYAMGWYRQAPGKEREFVARISVSAGRTYYADSVKGRFTISRDNAKNTVYLQMNSLKPEDTAVYYCAKGIPTFYGSPRYDYWGQGTQVTVSS	low polyreactivity
QVQLVESGGGLVQAGGSLRLSCAAAGSTFSSYAMGWYRQAPGKERELVAAITSSGGSTYYADSVKGRFSISRDNAKNTVYIQKNSLKPEDTAVYYCAAADVIFWLYYYWGQGTQVTVSS	low polyreactivity
QVQLVESGGGLVQAGGSLRLSCAASGRTFRLNGMGWYRQAPGKDRELVAAITWSGGRTYYADSVKGRFTISRDNAKNTVYLQKNSLKPEDTAVYYCAAGKSSYGIPKYYYWGQGTQVTVSS	high polyreactivity
QVQLVESGGGLVQAGGSLRLSCASSGYIYIVNAMGWYRQAPGKERELDAAINSSGGNTYYADSVKGRFTISRDNAKNTVYLQMNSLKPEDTGVYYCAADQAKDISFEYDYWGQGTQVTVSS	low polyreactivity
QVQLVESGGGLVQAGGTLRLSCAASGSTFKYYAMGWYRQAPGKEREFVASINWSGVSTYYADSVKGRFTISRDNAKNTVYLQMNSLKPEDTAVYYCAARVRGKYDYWGQGTQVTVSS	high polyreactivity
QVQLEDSGGGLVQAGVSLRLSSDASGSTIAGYVMGWYRQAPGKERELVAAISRSGGSTYYADSVKGRFTISRDNEKNTVYLQMNSLKPEDTAVYYCASRNSPGFPGDYWGQGSQVTVSS	high polyreactivity
QVQLVESGGGLVQAGGSLRLSCAASGSTFDSNAMGWYRQAPGKERELVAASDWSGGSTYYADSVKGRFTISRDNAKNTVYLQMNSLNPEDTGVYYGDADDSSINYGDFDYWGQGTQVTVTS	low polyreactivity
